Results published in patent US20150105327.

Key:
[1] = system: recombinant human histone H2A (wild type)
[2] = system: H2A with mutations of six other potential modification sites on the tail domains
[3] = system: tailless histone H2A (N- and C-terminal tails deleted)

Sequence of recombinant His-VprBP wild type (chain, as listed by the source): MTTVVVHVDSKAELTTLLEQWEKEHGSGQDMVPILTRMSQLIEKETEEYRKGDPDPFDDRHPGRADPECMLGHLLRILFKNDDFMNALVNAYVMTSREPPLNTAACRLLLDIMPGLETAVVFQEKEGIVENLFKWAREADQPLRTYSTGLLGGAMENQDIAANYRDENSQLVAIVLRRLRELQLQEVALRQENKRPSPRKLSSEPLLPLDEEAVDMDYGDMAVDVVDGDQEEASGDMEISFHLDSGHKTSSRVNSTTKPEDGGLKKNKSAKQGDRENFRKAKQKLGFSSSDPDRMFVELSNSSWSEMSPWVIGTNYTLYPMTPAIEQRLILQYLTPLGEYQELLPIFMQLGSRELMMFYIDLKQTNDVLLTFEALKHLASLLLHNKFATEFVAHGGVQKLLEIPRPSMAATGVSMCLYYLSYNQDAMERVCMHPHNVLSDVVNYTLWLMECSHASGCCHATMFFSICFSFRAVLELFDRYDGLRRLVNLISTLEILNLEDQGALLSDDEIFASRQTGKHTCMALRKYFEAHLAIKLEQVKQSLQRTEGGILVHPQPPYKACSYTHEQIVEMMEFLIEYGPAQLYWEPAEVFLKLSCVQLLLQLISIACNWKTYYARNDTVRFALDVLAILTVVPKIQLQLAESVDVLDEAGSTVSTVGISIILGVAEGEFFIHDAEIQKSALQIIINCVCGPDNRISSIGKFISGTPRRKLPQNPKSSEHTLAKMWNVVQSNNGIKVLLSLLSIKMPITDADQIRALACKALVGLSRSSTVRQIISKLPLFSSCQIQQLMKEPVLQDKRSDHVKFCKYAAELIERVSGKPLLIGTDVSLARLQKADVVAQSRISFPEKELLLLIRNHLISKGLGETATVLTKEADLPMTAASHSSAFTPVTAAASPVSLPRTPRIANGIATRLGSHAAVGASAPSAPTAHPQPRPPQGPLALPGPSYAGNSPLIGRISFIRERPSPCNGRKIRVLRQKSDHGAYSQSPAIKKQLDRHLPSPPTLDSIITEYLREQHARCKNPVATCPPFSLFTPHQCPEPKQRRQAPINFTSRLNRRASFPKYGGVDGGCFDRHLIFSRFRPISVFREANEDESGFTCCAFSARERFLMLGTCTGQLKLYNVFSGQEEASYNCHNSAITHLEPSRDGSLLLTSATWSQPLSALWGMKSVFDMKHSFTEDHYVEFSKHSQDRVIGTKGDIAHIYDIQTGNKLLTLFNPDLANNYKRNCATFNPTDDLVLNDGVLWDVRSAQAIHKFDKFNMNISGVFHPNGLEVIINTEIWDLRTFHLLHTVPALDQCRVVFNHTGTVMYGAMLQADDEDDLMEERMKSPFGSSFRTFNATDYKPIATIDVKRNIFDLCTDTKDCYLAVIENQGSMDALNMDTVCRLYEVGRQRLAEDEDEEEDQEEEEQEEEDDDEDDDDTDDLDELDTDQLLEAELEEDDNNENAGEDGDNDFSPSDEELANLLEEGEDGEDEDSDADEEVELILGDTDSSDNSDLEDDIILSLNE
Sequence of VprBP kinase-dead mutant K194R (chain, as listed by the source K194R): as the sequence (chain, as listed by the source) above, with K194R counted along it

| Substance | H2A phosphorylation in nucleosomes, in vitro kinase assay, autoradiography [1] | phosphorylation of H2A in reconstituted nucleosomes, in vitro kinase assay, autoradiography [1] | phosphorylation of free individual histones, in vitro kinase assay with [g-32P]-ATP, autoradiography [1] | phosphorylation of free individual histones, in vitro kinase assay with [g-32P]-ATP, autoradiography (recombinant histone H3) | H2A phosphorylation in nucleosomes, in vitro kinase assay, autoradiography [2] | phosphorylation of free individual histones, in vitro kinase assay with [g-32P]-ATP, autoradiography (recombinant histone H4) | H2A phosphorylation in nucleosomes, in vitro kinase assay, autoradiography [3] | H2A phosphorylation in nucleosomes, in vitro kinase assay, autoradiography (histone H2A T120A mutant) | phosphorylation of free individual histones, in vitro kinase assay with [g-32P]-ATP, autoradiography (recombinant histone H2B) |
| --- | --- | --- | --- | --- | --- | --- | --- | --- | --- |
| VprBP kinase-dead mutant K194R | mutation of this lysine residue completely abrogated kinase activity | – | – | – | – | – | – | – | – |
| recombinant His-VprBP wild type | – | VprBP generated clear labeling of H2A in the nucleosome after autoradiography | Autoradiograph of the kinase reaction products showed a robust phosphorylation of H2A, but not other core histones | a robust phosphorylation of H2A, but not other core histones | mutations of six other potential modification sites on the tail domains had little effect | a robust phosphorylation of H2A, but not other core histones | simultaneous deletion of the N- and C-terminal tails of H2A blocks H2A phosphorylation by VprBP | VprBP-mediated phosphorylation is completely abolished by mutation of T120 | a robust phosphorylation of H2A, but not other core histones |
